Measured values as given in publication PMC6757032.

Biological target: pre-formed trans-SNARE complexes between V- and T-liposomes (syntaxin-1A S186C-TMR, cysteine-free SNAP-25a, synaptobrevin-2 L26C-Alexa-488) (rat), P32851
Sequence (P32851 whole entry C145A/S186C/C271A/C272A, chain 1 of 3): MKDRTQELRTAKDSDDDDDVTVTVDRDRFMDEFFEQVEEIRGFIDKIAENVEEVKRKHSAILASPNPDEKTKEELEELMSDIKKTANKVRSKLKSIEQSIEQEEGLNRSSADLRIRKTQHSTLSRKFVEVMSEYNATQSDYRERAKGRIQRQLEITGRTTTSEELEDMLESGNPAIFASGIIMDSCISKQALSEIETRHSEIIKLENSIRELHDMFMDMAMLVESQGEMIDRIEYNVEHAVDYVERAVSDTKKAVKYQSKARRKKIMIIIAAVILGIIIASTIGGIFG
Sequence (P60881 other isoform, or with tags, fused parts or gaps, stated change not applied, chain 2 of 3, further chain): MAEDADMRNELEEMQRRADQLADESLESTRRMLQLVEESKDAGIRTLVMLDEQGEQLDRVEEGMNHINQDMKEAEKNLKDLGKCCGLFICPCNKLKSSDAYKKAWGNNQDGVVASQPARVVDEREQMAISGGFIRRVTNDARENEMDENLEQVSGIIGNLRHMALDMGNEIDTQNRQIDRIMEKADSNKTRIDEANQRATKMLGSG
Sequence (P63045 other isoform, or with tags, fused parts or gaps, stated change not applied, chain 3 of 3, further chain): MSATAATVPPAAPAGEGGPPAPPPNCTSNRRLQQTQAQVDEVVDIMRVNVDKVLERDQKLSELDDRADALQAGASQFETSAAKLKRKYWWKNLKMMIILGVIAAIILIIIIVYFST

B1: full-length Bos Taurus αSNAP, P81125 1-295 (natural protein)
chain: MDNSGKEAEAMALLAEAERKVKNSQSFFSGLFGGSSKIEEACEIYARAANMFKMAKNWSAAGSAFCQAAHVHLQLQSKHDAATCFVDAGNAFKKADPQEAINCLMRAIEIYTDMGRFTIAAKHHISIAEIYETELVDIEKAIAHYEQSADYYKGEESNSSANKCLLKVAGYAAQLEQYQKAIDIYEQVGTNAMDSPLLKYSAKDYFFKAALCHFCIDMLNAKLAVQKYEELFPAFSDSRECKRIKKLLEAHEEQNVDSYTEAVKEYDSISRLDQWLTTMLLRIKKTIQGDEEDLR
modifications: here or on the partner: tetramethylrhodamine on the cysteine at residue 186 | Alexa-488 on the cysteine at residue 26
  inhibition of lipid mixing (DiD de-quenching at 37 °C) mediated by trans-SNARE complexes pre-formed between V- and T-liposomes; titration with WT αSNAP: 170 nM
